{
  "source": "paper PMC5560758",
  "about": "“SCF^AtPP2-B11 modulates ABA signaling by facilitating SnRK2.3 degradation in Arabidopsis thaliana” (PLoS Genetics, 2017)",
  "binders": {"B1": {"name": "GST-AtPP2-B11 (natural protein, Arabidopsis thaliana, UniProt Q949S5 1-257, looked up)", "chain": "MNNLPEDCIAKILSLTTPLDVCRLSAVSSIFRSAAGSDDVWNHFLPADFPAGFAAPAGLPTRKQLFFSLVDNPLLINGTLLSFSLERKSGNKCYMMAARALNIVWGHEQRYWHWISLPNTRFGEVAELIMVWWLEITGKINITLLSDDTLYAAYFVFKWNHSPYGFRQPVETSLVLADTESTDNVVQPSMISLMQDSGGEEGQSPVLRRDGWYEVELGQFFKRRGDLGEIEMSLKETKGPYEKKGLIVYGIEIRPVP", "notes": "AtPP2-B11, F-box protein of Arabidopsis thaliana, 257 amino acids; ORF cloned into pGEX-4T-1; pGEX-4T-1 places GST at the N-terminus (surmised from the vector); also called AtPP2-B11-GST; source: E. coli BL21, purified (Glutathione Agarose)"}},
  "target": "T1, MBP-SnRK2.3 (Arabidopsis thaliana, UniProt Q39193 1-361)",
  "T1 construct": "SnRK2.3 (SnRK2I) of Arabidopsis thaliana; ORF cloned into pMAL-c2x; pMAL-c2x places MBP at the N-terminus (surmised from the vector); also called SnRK2.3-MBP; source: E. coli BL21, purified (Amylose Resin)",
  "T1 sequence (looked up)": "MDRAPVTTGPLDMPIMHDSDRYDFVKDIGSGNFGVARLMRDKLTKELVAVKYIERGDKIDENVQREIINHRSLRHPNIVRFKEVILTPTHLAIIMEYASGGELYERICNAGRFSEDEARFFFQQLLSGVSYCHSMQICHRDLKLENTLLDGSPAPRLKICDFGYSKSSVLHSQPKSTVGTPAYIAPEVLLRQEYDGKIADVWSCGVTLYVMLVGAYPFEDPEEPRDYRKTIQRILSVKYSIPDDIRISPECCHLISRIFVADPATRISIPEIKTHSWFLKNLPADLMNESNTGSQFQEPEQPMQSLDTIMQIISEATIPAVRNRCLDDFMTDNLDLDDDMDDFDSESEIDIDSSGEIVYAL",
  "test": "pull-down; AtPP2-B11-GST held on GST beads, incubated with MBP-SnRK2s 2 h at room temperature or 4°C overnight; washed four times; anti-MBP blot",
  "details": "both partners purified",
  "data": [
    {"binder": "B1", "values": [
      {"measurement": "binding result", "value": "binds"}
    ]}
  ]
}
